Target: T1, mN2G^SR (mini-nesprin-2G lacking the transmembrane KASH domain, with C-terminal sfGFP-6xHis) (mouse, UniProt Q6ZWQ0-1)
T1 chain: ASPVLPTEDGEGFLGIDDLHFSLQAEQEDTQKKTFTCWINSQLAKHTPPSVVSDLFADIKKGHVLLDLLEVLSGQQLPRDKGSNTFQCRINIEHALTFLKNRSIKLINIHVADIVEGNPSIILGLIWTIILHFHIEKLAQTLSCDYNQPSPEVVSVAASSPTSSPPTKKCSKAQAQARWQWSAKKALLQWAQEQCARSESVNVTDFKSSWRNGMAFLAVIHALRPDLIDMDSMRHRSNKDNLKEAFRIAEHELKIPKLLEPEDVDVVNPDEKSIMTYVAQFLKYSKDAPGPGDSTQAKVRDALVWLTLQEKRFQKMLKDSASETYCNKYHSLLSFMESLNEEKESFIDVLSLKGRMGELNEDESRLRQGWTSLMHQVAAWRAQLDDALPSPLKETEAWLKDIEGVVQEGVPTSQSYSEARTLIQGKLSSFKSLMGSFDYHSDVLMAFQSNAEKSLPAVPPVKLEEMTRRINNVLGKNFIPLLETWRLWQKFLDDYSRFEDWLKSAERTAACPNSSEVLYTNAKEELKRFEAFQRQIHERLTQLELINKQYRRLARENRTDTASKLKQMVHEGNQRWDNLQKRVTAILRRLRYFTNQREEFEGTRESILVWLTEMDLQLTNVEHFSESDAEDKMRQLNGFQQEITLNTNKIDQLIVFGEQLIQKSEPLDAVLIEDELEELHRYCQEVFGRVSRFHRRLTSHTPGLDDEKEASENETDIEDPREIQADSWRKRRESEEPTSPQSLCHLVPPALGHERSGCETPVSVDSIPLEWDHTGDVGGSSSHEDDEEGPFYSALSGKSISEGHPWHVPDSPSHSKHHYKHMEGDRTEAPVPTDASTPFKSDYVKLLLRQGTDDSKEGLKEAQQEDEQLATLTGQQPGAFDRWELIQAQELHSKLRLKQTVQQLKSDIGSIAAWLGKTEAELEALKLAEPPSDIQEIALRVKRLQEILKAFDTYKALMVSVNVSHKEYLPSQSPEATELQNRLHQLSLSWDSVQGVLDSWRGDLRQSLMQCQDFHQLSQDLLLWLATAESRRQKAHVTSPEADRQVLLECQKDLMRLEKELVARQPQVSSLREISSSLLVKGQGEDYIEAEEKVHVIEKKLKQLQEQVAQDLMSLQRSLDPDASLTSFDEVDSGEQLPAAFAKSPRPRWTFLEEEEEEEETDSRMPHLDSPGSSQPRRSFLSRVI
Assay: TIRF microscopy

- fold recruitment to F-actin against mN2G^CH: > 115 fold
B1: kinesin heterotetramer composed of the KIF5B KHC and KLC2 (K5B2) (complex)
chain 1: MADLAECNIKVMCRFRPLNESEVNRGDKYIAKFQGEDTVVIASKPYAFDRVFQSSTSQEQVYNDCAKKIVKDVLEGYNGTIFAYGQTSSGKTHTMEGKLHDPEGMGIIPRIVQDIFNYIYSMDENLEFHIKVSYFEIYLDKIRDLLDVSKTNLSVHEDKNRVPYVKGCTERFVCSPDEVMDTIDEGKSNRHVAVTNMNEHSSRSHSIFLINVKQENTQTEQKLSGKLYLVDLAGSEKVSKTGAEGAVLDEAKNINKSLSALGNVISALAEGSTYVPYRDSKMTRILQDSLGGNCRTTIVICCSPSSYNESETKSTLLFGQRAKTIKNTVCVNVELTAEQWKKKYEKEKEKNKILRNTIQWLENELNRWRNGETVPIDEQFDKEKANLEAFTVDKDITLTNDKPATAIGVIGNFTDAERRKCEEEIAKLYKQLDDKDEEINQQSQLVEKLKTQMLDQEELLASTRRDQDNMQAELNRLQAENDASKEEVKEVLQALEELAVNYDQKSQEVEDKTKEYELLSDELNQKSATLASIDAELQKLKEMTNHQKKRAAEMMASLLKDLAEIGIAVGNNDVKQPEGTGMIDEEFTVARLYISKMKSEVKTMVKRCKQLESTQTESNKKMEENEKELAACQLRISQHEAKIKSLTEYLQNVEQKKRQLEESVDALSEELVQLRAQEKVHEMEKEHLNKVQTANEVKQAVEQQIQSHRETHQKQISSLRDEVEAKAKLITDLQDQNQKMMLEQERLRVEHEKLKATDQEKSRKLHELTVMQDRREQARQDLKGLEETVAKELQTLHNLRKLFVQDLATRVKKSAEIDSDDTGGSAAQKQKISFLENNLEQLTKVHKQLVRDNADLRCELPKLEKRLRATAERVKALESALKEAKENASRDRKRYQQEVDRIKEAVRSKNMARRGHSAQIAKPIRPGQHPAASPTHPSAIRGGGAFVQNSQPVAVRGGGGKQV
chain 2: MAMMVFPREEKLSQDEIVLGTKAVIQGLETLRGEHRALLAPLVAPEAGEAEPGSQERCILLRRSLEAIELGLGEAQVILALSSHLGAVESEKQKLRAQVRRLVQENQWLREELAGTQQKLQRSEQAVAQLEEEKQHLLFMSQIRKLDEDASPNEEKGDVPKDTLDDLFPNEDEQSPAPSPGGGDVSGQHGGYEIPARLRTLHNLVIQYASQGRYEVAVPLCKQALEDLEKTSGHDHPDVATMLNILALVYRDQNKYKEAAHLLNDALAIREKTLGKDHPAVAATLNNLAVLYGKRGKYKEAEPLCKRALEIREKVLGKFHPDVAKQLSNLALLCQNQGKAEEVEYYYRRALEIYATRLGPDDPNVAKTKNNLASCYLKQGKYQDAETLYKEILTRAHEKEFGSVNGDNKPIWMHAEEREESKDKRRDSAPYGEYGSWYKACKVDSPTVNTTLRSLGALYRRQGKLEAAHTLEDCASRNRKQGLDPASQTKVVELLKDGSGRRGDRRSSRDMAGGAGPRSESDLEDVGPTAEWNGDGSGSLRRSGSFGKLRDALRRSSEMLVKKLQGGTPQEPPNPRMKRASSLNFLNKSVEEPTQPGGTGLSDSRTLSSSSMDLSRRSSLVG

From paper PMC11844729 (Science Advances, 2025)
